Test results taken from publication PMC11096383.

Target: G12D (M3D-GPR183/ICL3 F93^1.57V), FLAG-epitope-tagged (human)
Sequence (chain, as listed by the source G12D): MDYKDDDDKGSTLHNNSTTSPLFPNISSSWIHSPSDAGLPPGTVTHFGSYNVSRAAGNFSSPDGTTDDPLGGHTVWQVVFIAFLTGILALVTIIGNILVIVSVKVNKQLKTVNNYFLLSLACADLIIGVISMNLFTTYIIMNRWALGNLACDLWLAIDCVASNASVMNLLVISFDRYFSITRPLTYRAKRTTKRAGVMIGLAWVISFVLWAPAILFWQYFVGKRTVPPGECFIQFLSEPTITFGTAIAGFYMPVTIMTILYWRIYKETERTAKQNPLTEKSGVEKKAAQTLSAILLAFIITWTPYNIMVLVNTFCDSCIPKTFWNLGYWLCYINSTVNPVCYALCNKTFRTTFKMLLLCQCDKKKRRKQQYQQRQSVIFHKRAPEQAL

TGFα shedding assay (AP-TGFα release on CNO, concentration-response) in ∆Gq/∆G12 HEK293 cells; relative intrinsic activity (RAi) of Gα (q-12C) against Gα (q-13C): 4.6 fold
B1: Gα_(q-12C) (protein)
chain: MTLESIMACCLSEEAKEARRINDEIERQLRRDKRDARRELKLLLLGTGESGKSTFIKQMRIIHGSGYSDEDKRGFTKLVYQNIFTAMQAMIRAMDTLKIPYKYEHNKAHAQLVREVDVEKVSAFENPYVDAIKSLWNDPGIQECYDRRREYQLSDSTKYYLNDLDRVADPAYLPTQQDVLRVRVPTTGIIEYPFDLQSVIFRMVDVGGQRSERRKWIHCFENVTSIMFLVALSEYDQVLVESDNENRMEESKALFRTIITYPWFQNSSVILFLNKKDLLEEKIMYSHLVDYFPEYDGPQRDAQAAREFILKMFVDLNPDSDKIIYSHFTCATDTENVRFVFHAVKDTILQENLKDIMLQ
